Data on 13 molecules can be found in PMC10786891, “Massively parallel profiling of RNA-targeting CRISPR-Cas13d”.

First the molecules themselves.
T1: EsCas13d, nuclease-dead (Eubacterium siraeum, UniProt B0MS50, R295A;H300A;R849A;H854A)
T1 sequence: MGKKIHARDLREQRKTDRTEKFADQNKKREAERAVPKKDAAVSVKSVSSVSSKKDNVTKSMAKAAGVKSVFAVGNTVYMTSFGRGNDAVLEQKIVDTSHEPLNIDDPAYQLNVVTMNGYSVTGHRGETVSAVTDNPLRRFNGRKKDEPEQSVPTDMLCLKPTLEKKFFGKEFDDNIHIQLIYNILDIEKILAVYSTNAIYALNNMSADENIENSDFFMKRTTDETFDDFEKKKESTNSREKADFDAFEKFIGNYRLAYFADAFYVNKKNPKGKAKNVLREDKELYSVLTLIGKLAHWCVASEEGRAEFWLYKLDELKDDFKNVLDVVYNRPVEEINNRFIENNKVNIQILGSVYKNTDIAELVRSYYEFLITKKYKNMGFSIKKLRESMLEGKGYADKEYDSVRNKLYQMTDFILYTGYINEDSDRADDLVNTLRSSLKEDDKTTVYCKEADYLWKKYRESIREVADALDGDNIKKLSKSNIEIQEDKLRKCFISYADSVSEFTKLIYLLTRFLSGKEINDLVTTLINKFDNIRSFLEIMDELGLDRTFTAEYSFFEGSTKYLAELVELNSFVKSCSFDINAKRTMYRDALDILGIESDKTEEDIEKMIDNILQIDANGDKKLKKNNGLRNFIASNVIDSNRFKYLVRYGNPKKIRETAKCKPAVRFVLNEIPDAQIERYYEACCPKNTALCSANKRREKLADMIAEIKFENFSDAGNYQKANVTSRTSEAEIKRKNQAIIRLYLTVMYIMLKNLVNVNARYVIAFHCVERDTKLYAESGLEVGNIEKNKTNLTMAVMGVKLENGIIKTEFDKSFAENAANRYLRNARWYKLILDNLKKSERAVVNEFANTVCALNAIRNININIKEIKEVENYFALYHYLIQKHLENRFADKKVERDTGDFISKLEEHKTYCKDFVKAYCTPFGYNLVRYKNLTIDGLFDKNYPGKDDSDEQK

B1: target 1 C2U,U3A (mixed)
RNA 1: CACCCGUGCAAAAAUGCAGGGGUCUAAAACUGAGCGGAUAACCUCUCUAUGG
RNA 2: GGGAAUGGAUCCACAUCUACGAAUUCGUACCAUAGAGAGGUUAUCCGCAUACCGAGAUCGGAAGAGCACACGU
B2: target 1 G5U,U8A (mixed)
RNA 1: CACCCGUGCAAAAAUGCAGGGGUCUAAAACUGAGCGGAUAACCUCUCUAUGG
RNA 2: GGGAAUGGAUCCACAUCUACGAAUUCGUACCAUAGAGAGGUUAACCUCUCACCGAGAUCGGAAGAGCACACGU
B3: target 2 MT 5'PFS AGG 3'PFS AGG (mixed)
RNA 1: CACCCGUGCAAAAUUGCAGGGGUCUAAAACCUUCUCCAAAUUGUUUCAUCCU
RNA 2: GGGAAUGGAUCCACAUCUACGAAUUCAGGAGGAUGAAACAAUUUGGAGAAGAGGAGAUCGGAAGAGCACACGU
B4: target 2 MT 5'PFS CGA 3'PFS CAC (mixed)
RNA 1: CACCCGUGCAAAAUUGCAGGGGUCUAAAACCUUCUCCAAAUUGUUUCAUCCU
RNA 2: GGGAAUGGAUCCACAUCUACGAAUUCCGAAGGAUGAAACAAUUUGGAGAAGCACAGAUCGGAAGAGCACACGU
B5: target 2 MT 5'PFS UGG 3'PFS UCA (mixed)
RNA 1: CACCCGUGCAAAAUUGCAGGGGUCUAAAACCUUCUCCAAAUUGUUUCAUCCU
RNA 2: GGGAAUGGAUCCACAUCUACGAAUUCUGGAGGAUGAAACAAUUUGGAGAAGUCAAGAUCGGAAGAGCACACGU
B6: target 2 MT 5'PFS UAU 3'PFS AAG (mixed)
RNA 1: CACCCGUGCAAAAUUGCAGGGGUCUAAAACCUUCUCCAAAUUGUUUCAUCCU
RNA 2: GGGAAUGGAUCCACAUCUACGAAUUCUAUAGGAUGAAACAAUUUGGAGAAGAAGAGAUCGGAAGAGCACACGU
B7: target 2 MT 5'PFS UGA 3'PFS CUU (mixed)
RNA 1: CACCCGUGCAAAAUUGCAGGGGUCUAAAACCUUCUCCAAAUUGUUUCAUCCU
RNA 2: GGGAAUGGAUCCACAUCUACGAAUUCUGAAGGAUGAAACAAUUUGGAGAAGCUUAGAUCGGAAGAGCACACGU
B8: target 2 MT 5'PFS AUG 3'PFS UAA (mixed)
RNA 1: CACCCGUGCAAAAUUGCAGGGGUCUAAAACCUUCUCCAAAUUGUUUCAUCCU
RNA 2: GGGAAUGGAUCCACAUCUACGAAUUCAUGAGGAUGAAACAAUUUGGAGAAGUAAAGAUCGGAAGAGCACACGU
B9: target 2 MT 5'PFS AUG 3'PFS UAC (mixed)
RNA 1: CACCCGUGCAAAAUUGCAGGGGUCUAAAACCUUCUCCAAAUUGUUUCAUCCU
RNA 2: GGGAAUGGAUCCACAUCUACGAAUUCAUGAGGAUGAAACAAUUUGGAGAAGUACAGAUCGGAAGAGCACACGU
B10: target 2 MT 5'PFS CGG 3'PFS UUU (mixed)
RNA 1: CACCCGUGCAAAAUUGCAGGGGUCUAAAACCUUCUCCAAAUUGUUUCAUCCU
RNA 2: GGGAAUGGAUCCACAUCUACGAAUUCCGGAGGAUGAAACAAUUUGGAGAAGUUUAGAUCGGAAGAGCACACGU
B11: target 2 MT 5'PFS AUG 3'PFS UAU (mixed)
RNA 1: CACCCGUGCAAAAUUGCAGGGGUCUAAAACCUUCUCCAAAUUGUUUCAUCCU
RNA 2: GGGAAUGGAUCCACAUCUACGAAUUCAUGAGGAUGAAACAAUUUGGAGAAGUAUAGAUCGGAAGAGCACACGU
B12: target 2 MT 5'PFS UAU 3'PFS AAC (mixed)
RNA 1: CACCCGUGCAAAAUUGCAGGGGUCUAAAACCUUCUCCAAAUUGUUUCAUCCU
RNA 2: GGGAAUGGAUCCACAUCUACGAAUUCUAUAGGAUGAAACAAUUUGGAGAAGAACAGAUCGGAAGAGCACACGU
B13: target 2 MT 5'PFS CGA 3'PFS CAA (mixed)
RNA 1: CACCCGUGCAAAAUUGCAGGGGUCUAAAACCUUCUCCAAAUUGUUUCAUCCU
RNA 2: GGGAAUGGAUCCACAUCUACGAAUUCCGAAGGAUGAAACAAUUUGGAGAAGCAAAGAUCGGAAGAGCACACGU

The target of this series is T1, EsCas13d, nuclease-dead. As to the kind of experiment: crRNA (strand 1, pre-loaded); Mg2+; 40 mM Tris-HCl pH 7.5, 150 mM NaCl, 6 mM MgCl2, 1 mM DTT, 0.1% Tween-20, 0.2 mg/ml BSA; 25 C; 10 min per concentration, then washed. The following applies: tags: His6-TwinStrep-SUMO cleaved; N-terminal SNAP kept (SNAP-Surface 488); label: 3' end held by stalled T7 RNA polymerase.
In the case of B1, the Kd (as a rule, a measure of binding affinity in units of concentration) is 16.1 ± 1.9 nM.

In turn, B2 came in with a Kd of roughly 70 nM.

Regarding B3, the Kd was determined as 5.2 ± 0.6 nM.

B4 showed a Kd of 9 ± 4 nM.

Regarding B5, the Kd was determined as 8.5 ± 0.9 nM.

B6 came in with a Kd of 20.9 ± 2.2 nM.

For B7, the Kd came to 14.1 ± 3 nM.

Turning to B8, the Kd amounted to 7.9 ± 1.3 nM.

In turn, B9 registered a Kd of 12.6 ± 2.3 nM. Compared with the last molecule, the Kd is about 1.6-fold higher.

Regarding B10, the Kd amounted to 15 ± 2.7 nM.

B11 gave a dissociation constant Kd of 15 ± 4 nM.

B12 had a Kd of 24 ± 2.8 nM.

With B13, the affinity, expressed as Kd, was 6.5 ± 2 nM. Compared with the last molecule, the Kd is about 3.7-fold lower.
